In patent US10688131B2, “Peptides and scaffolds for use in immunotherapy against head and neck squamous cell carcinoma and other cancers” (Immatics Biotechnologies GmbH, priority 2016, dated 2020):

Columns and labels:
HLA-A*02:01 = HLA-A*02:01 (Homo sapiens, UniProt P04439, D140Y/D185E/D98H/E176V/E277Q/G131W/G231S/I119V/I121R/I166T/I218V/L300P/L318F/N151K/N90K/P208A/P217A/Q86G/Q94H/R138H/R169H/T345S); experiment: MHC binding assay: UV-ligand exchange with β2m ELISA; conditions: binding of HLA-class I restricted peptides to HLA-A*02:01
Text: Candidate peptides for T cell based therapies according to the present invention were further tested for their MHC binding capacity (affinity). The individual peptide-MHC complexes were produced by UV-ligand exchange, where a UV-sensitive peptide is cleaved upon UV-irradiation, and exchanged with the peptide of interest as analyzed. Only peptide candidates that can effectively bind and stabilize the peptide-receptive MHC molecules prevent dissociation of the MHC complexes. To determine the yield of the exchange reaction, an ELISA was performed based on the detection of the light chain (β2m) of stabilized MHC complexes. The assay was performed as generally described in Rodenko et al. (Rodenko et al., 2006).
96 well MAXISorp plates (NUNC) were coated over night with 2 ug/ml streptavidin in PBS at room temperature, washed 4× and blocked for 1 h at 37° C. in 2% BSA containing blocking buffer. Refolded HLA-A*02:01/MLA-001 monomers served as standards, covering the range of 15-500 ng/ml. Peptide-MHC monomers of the UV-exchange reaction were diluted 100-fold in blocking buffer. Samples were incubated for 1 h at 37° C., washed four times, incubated with 2 ug/ml HRP conjugated anti-β2m for 1 h at 37° C., washed again and detected with TMB solution that is stopped with […]. Absorption was measured at 450 nm. Candidate peptides that show a high exchange yield (preferably higher than 50%, most preferred higher than 75%) are generally preferred for a generation and production of antibodies or fragments thereof, and/or T cell receptors or fragments thereof, as they show sufficient avidity to the MHC molecules and prevent dissociation of the MHC complexes.

CD8+ T cells = experiment: In vitro T-cell priming assay with aAPCs loaded with peptide/MHC complexes and anti-CD28 antibody, pMHC multimer readout; assay type: cell-based, human; conditions: percentage of positive wells among evaluable, HLA-A*02 restricted peptides
Text: In order to obtain information regarding the immunogenicity of the TUMAPs of the present invention, the inventors performed investigations using an in vitro T-cell priming assay based on repeated stimulations of CD8+ T cells with artificial antigen presenting cells (aAPCs) loaded with peptide/MHC complexes and anti-CD28 antibody.
In order to perform in vitro stimulations by artificial antigen presenting cells loaded with peptide-MHC complex (pMHC) and anti-CD28 antibody, the inventors first isolated CD8+ T cells from fresh HLA-A*02 leukapheresis products via positive selection using CD8 microbeads (Miltenyi Biotech, Bergisch-Gladbach, Germany) of healthy donors obtained from the University clinics Mannheim, Germany, after informed consent.
PBMCs and isolated CD8+ lymphocytes were incubated in T-cell medium (TCM) until use consisting of RPMI-Glutamax (Invitrogen, Karlsruhe, Germany) supplemented with 10% heat inactivated human AB serum (PAN-Biotech, Aidenbach, Germany), 100 U/ml Penicillin/100 μg/ml Streptomycin (Cambrex, Cologne, Germany), 1 mM sodium pyruvate (CC Pro, Oberdorla, Germany), 20 μg/ml Gentamycin (Cambrex). 2.5 ng/ml IL-7 (PromoCell, Heidelberg, Germany) and 10 U/ml IL-2 (Novartis Pharma, Nürnberg, Germany) were also added to the TCM at this step.
Generation of pMHC/anti-CD28 coated beads, T-cell stimulations and readout was performed in a highly defined in vitro system using four different pMHC molecules per stimulation condition and 8 different pMHC molecules per readout condition.
The purified co-stimulatory mouse IgG2a anti human CD28 Ab 9.3 (Jung et al., 1987) was chemically biotinylated using Sulfo-N-hydroxysuccinimidobiotin as recommended by the manufacturer (Perbio, Bonn, Germany). Beads used were 5.6 μm diameter streptavidin coated polystyrene particles (Bangs Laboratories, Illinois, USA).
pMHC used for positive and negative control stimulations were A*0201/MLA-001 (peptide […] (SEQ ID NO. 157) from modified Melan-A/MART-1) and A*0201/DDX5-001 ([…] from DDX5, SEQ ID NO. 158), respectively.
800.000 beads/200 μl were coated in 96-well plates in the presence of 4×12.5 ng different biotin-pMHC, washed and 600 ng biotin anti-CD28 were added subsequently in a volume of 200 μl. Stimulations were initiated in 96-well plates by co-incubating 1×10^6 CD8+ T cells with 2×10^5 washed coated beads in 200 μl TCM supplemented with 5 ng/ml IL-12 (PromoCell) for 3 days at 37° C. Half of the medium was then exchanged by fresh TCM supplemented with 80 U/ml IL-2 and incubating was continued for 4 days at 37° C. This stimulation cycle was performed for a total of three times. For the pMHC multimer readout using 8 different pMHC molecules per condition, a two-dimensional combinatorial coding approach was used as previously described (Andersen et al., 2012) with minor modifications encompassing coupling to 5 different fluorochromes. Finally, multimeric analyses were performed by staining the cells with Live/dead near IR dye (Invitrogen, Karlsruhe, Germany), CD8-FITC antibody clone SK1 (BD, Heidelberg, Germany) and fluorescent pMHC multimers. For analysis, a BD LSRII SORP cytometer equipped with appropriate lasers and filters was used. Peptide specific cells were calculated as percentage of total CD8+ cells. Evaluation of multimeric analysis was done using the FlowJo software (Tree Star, Oregon, USA). In vitro priming of specific multimer+CD8+ lymphocytes was detected by comparing to negative control stimulations.
Exemplary flow cytometry results after TUMAP-specific multimer staining for 2 peptides of the invention are shown in FIGS. 3A and 3B together with corresponding negative controls. Additional exemplary flow cytometry results after TUMAP-specific multimer staining for 3 peptides of the invention are shown in FIGS. 4A-4C together with corresponding negative controls.

Substance: 8 (AQLNIGNVLPV; listed as Homo sapiens) [compound 8]
- Peptide exchange (MHC class I binding score, peptide exchange yield) (HLA-A*02:01): ++++ (>75% = ++++)
- Wells positive [%] (CD8+ T cells): + (<20% = +)

Substance: 10 (TLWPATPPKA; listed as Homo sapiens) [compound 10]
- Peptide exchange (MHC class I binding score, peptide exchange yield) (HLA-A*02:01): +++ (>50 = +++)
- Wells positive [%] (CD8+ T cells): + (<20% = +)

Substance: 11 (VLFSSPPVI; listed as Homo sapiens) [compound 11]
- Peptide exchange (MHC class I binding score, peptide exchange yield) (HLA-A*02:01): ++++ (>75% = ++++)
- Wells positive [%] (CD8+ T cells): ++ (20%-49% = ++)

Substance: 12 (TLTDEINFL; listed as Homo sapiens) [compound 12]
- Peptide exchange (MHC class I binding score, peptide exchange yield) (HLA-A*02:01): ++++ (>75% = ++++)
- Wells positive [%] (CD8+ T cells): + (<20% = +)

Substance: 13 (SLVSYLDKV; listed as Homo sapiens) [compound 13]
- Peptide exchange (MHC class I binding score, peptide exchange yield) (HLA-A*02:01): ++++ (>75% = ++++)
- Wells positive [%] (CD8+ T cells): ++ (20%-49% = ++)

Substance: 16 (ALKDSVQRA; listed as Homo sapiens) [compound 16]
- Peptide exchange (MHC class I binding score, peptide exchange yield) (HLA-A*02:01): +++ (>50 = +++)
- Wells positive [%] (CD8+ T cells): + (<20% = +)

Substance: 17 (SIWPALTQV; listed as Homo sapiens) [compound 17]
- Peptide exchange (MHC class I binding score, peptide exchange yield) (HLA-A*02:01): ++++ (>75% = ++++)
- Wells positive [%] (CD8+ T cells): ++++ (>=70% = ++++)

Substance: 18 (YLYPDLSRL; listed as Homo sapiens) [compound 18]
- Peptide exchange (MHC class I binding score, peptide exchange yield) (HLA-A*02:01): ++++ (>75% = ++++)
- Wells positive [%] (CD8+ T cells): + (<20% = +)

Substance: 19 (ALAKLLPLL; listed as Homo sapiens) [compound 19]
- Peptide exchange (MHC class I binding score, peptide exchange yield) (HLA-A*02:01): ++++ (>75% = ++++)
- Wells positive [%] (CD8+ T cells): ++ (20%-49% = ++)

Substance: 20 (YLINEIDRIRA; listed as Homo sapiens) [compound 20]
- Peptide exchange (MHC class I binding score, peptide exchange yield) (HLA-A*02:01): ++++ (>75% = ++++)
- Wells positive [%] (CD8+ T cells): + (<20% = +)

Substance: 26 (TLVDENQSWYL; listed as Homo sapiens) [compound 26]
- Peptide exchange (MHC class I binding score, peptide exchange yield) (HLA-A*02:01): +++ (>50 = +++)
- Wells positive [%] (CD8+ T cells): ++ (20%-49% = ++)

Substance: 28 (AVDPVSGSLYV; listed as Homo sapiens) [compound 28]
- Peptide exchange (MHC class I binding score, peptide exchange yield) (HLA-A*02:01): ++++ (>75% = ++++)
- Wells positive [%] (CD8+ T cells): +++ (50%-69% = +++)

Substance: 29 (RLLPDLDEV; listed as Homo sapiens) [compound 29]
- Peptide exchange (MHC class I binding score, peptide exchange yield) (HLA-A*02:01): ++++ (>75% = ++++)
- Wells positive [%] (CD8+ T cells): ++ (20%-49% = ++)

Substance: 30 (TLASLGYAVV; listed as Homo sapiens) [compound 30]
- Peptide exchange (MHC class I binding score, peptide exchange yield) (HLA-A*02:01): +++ (>50 = +++)
- Wells positive [%] (CD8+ T cells): +++ (50%-69% = +++)

Substance: 82 (VLDINDNPPV; listed as Homo sapiens) [compound 82]
- Peptide exchange (MHC class I binding score, peptide exchange yield) (HLA-A*02:01): +++ (>50 = +++)
- Wells positive [%] (CD8+ T cells): + (<20% = +)
